Assay results reported in US20220073643A1 (NANJING GENSCRIPT BIOTECH, published 2022).
Where two headings read alike, the source gives them in different places.

B1: chimeric 201F4H6 (antibody, human IgG1, kappa, V domains shown)
VH: QVQLKESGPGLVAPSQSLSITCTVSGFSLTSYGVSWVRQPPGKGLECLGVIWAGGNTNYNSALMSRLSISKDKSKSQVFLKMNSLQTDDTAMYYCARVYYGNAMDYWGQGTSVTVSS
VL: DIVMTQSPSSLTVTAGEKVTMSCKSSQSLLNSGNQKSYLTWYQQRPGQPPKLLIYWASTRESGVPDRFTGSGSGTDFTLTISSVQAEDLAVYFCQNVYFFPFTFGSGTKLETKR
notes: chimeric, human IgG1/kappa constant regions
B2: humanized 370E2B12C3-VH3 + VL1 (antibody, human IgG1, kappa, V domains shown)
VH: QVQLVESGGGVVQPGRSLRLSCAASGFSLTTYGVHWVRQAPGKGLEWVAVIWAGGSTNYNSALMSRFTISRDNSKNTLYLQMNSLRAEDTAVYYCARAAYYGNGLDYWGQGTMVTVSS
VL: DIVMTQSPDSLAVSLGERATINCKSSQTLLNSGNQKNYLTWYQQKPGQPPKLLIYWASTGESGVPDRFSGSGSGTDFTLTISSLQAEDVAVYYCQNAYFYPFTFGGGTKLEIKR
notes: humanized, human IgG1/kappa constant regions
B3: humanized 370E2B12C3-VH3 + VL2 (antibody, human IgG1, kappa, V domains shown)
VH: QVQLVESGGGVVQPGRSLRLSCAASGFSLTTYGVHWVRQAPGKGLEWVAVIWAGGSTNYNSALMSRFTISRDNSKNTLYLQMNSLRAEDTAVYYCARAAYYGNGLDYWGQGTMVTVSS
VL: DIVMTQSPLSLPVTPGEPASISCKSSQTLLNSGNQKNYLTWYLQKPGQSPQLLIYWASTGESGVPDRFSGSGSGTDFTLKISRVEAEDVGVYYCQNAYFYPFTFGGGTKVEIKR
notes: as for B2
B4: humanized 410H6H3-VH1.2 + VL1.1 (antibody, human IgG1, kappa, V domains shown)
VH: EVQLVESGGGLVQPGGSRRLSCAASGFTFSSSGMHWVRQAPGKGLEWVSYISSGSNTIYYADTLKGRFTISRDNAKNTLFLQMNSLRAEDTAVYYCARIYYGNSFVYWGQGTLVTVSS
VL: DIVMTQSPDSLAVSLGERATMSCKSSQSLLNSGNQKNYLTWYQQKPGQPPKMLIYWASTRESGVPDRFSGSGSGTDFTLTISSLQAEDVAVYYCQNNYYYPLTFGQGTKLEIKR
notes: as for B2
B5: humanized 412B6E4-VH1.1 + VL1.1 (antibody, human IgG1, kappa, V domains shown)
VH: EVQLVESGGGLVQPGGSLRLSCAASGFTFSSFGVHWVRQAPGKGLEWVAYISSGSSTIYYAHSVKGRFTISRDNAKNSLFLQMNSLRAEDTAVYYCARFYYGNSFAYWGQGTLVTVSS
VL: DIVMTQSPDSLAVSLGERATMSCKSSQSLLNSGNQKNYLTWYQQKPGQPPKMLIYWASTRESGVPDRFSGSGSGTDFTLTISSLQAEDVAVYYCQNAYTYPLTFGQGTKLEIKR
notes: as for B2
B6: humanized 412B6E4-VH1 + VL1.1 (antibody, human IgG1, kappa, V domains shown)
VH: EVQLVESGGGLVQPGGSLRLSCAASGFTFSSFGVHWVRQAPGKGLEWVSYISSGSSTIYYAHSVKGRFTISRDNAKNSLYLQMNSLRAEDTAVYYCARFYYGNSFAYWGQGTLVTVSS
VL: DIVMTQSPDSLAVSLGERATMSCKSSQSLLNSGNQKNYLTWYQQKPGQPPKMLIYWASTRESGVPDRFSGSGSGTDFTLTISSLQAEDVAVYYCQNAYTYPLTFGQGTKLEIKR
notes: as for B2
B7: humanized 412B6E4-VH1.2 + VL1.1 (antibody, human IgG1, kappa, V domains shown)
VH: EVQLVESGGGLVQPGGSRRLSCAASGFTFSSFGVHWVRQAPGKGLEWVSYISSGSSTIYYAHSVKGRFTISRDNAKNTLFLQMNSLRAEDTAVYYCARFYYGNSFAYWGQGTLVTVSS
VL: DIVMTQSPDSLAVSLGERATMSCKSSQSLLNSGNQKNYLTWYQQKPGQPPKMLIYWASTRESGVPDRFSGSGSGTDFTLTISSLQAEDVAVYYCQNAYTYPLTFGQGTKLEIKR
notes: as for B2
B8: humanized 370E2B12C3-VH3 + VL3 (antibody, human IgG1, kappa, V domains shown)
VH: QVQLVESGGGVVQPGRSLRLSCAASGFSLTTYGVHWVRQAPGKGLEWVAVIWAGGSTNYNSALMSRFTISRDNSKNTLYLQMNSLRAEDTAVYYCARAAYYGNGLDYWGQGTMVTVSS
VL: DVVMTQSPLSLPVTLGQPASISCKSSQTLLNSGNQKNYLTWFQQRPGQSPRRLIYWASTGESGVPDRFSGSGSGTDFTLKISRVEAEDVGVYYCQNAYFYPFTFGGGTKVEIKR
notes: as for B2
B9: humanized 410H6H3-VH1 + VL1 (antibody, human IgG1, kappa, V domains shown)
VH: EVQLVESGGGLVQPGGSLRLSCAASGFTFSSSGMHWVRQAPGKGLEWVSYISSGSNTIYYADTLKGRFTISRDNAKNSLYLQMNSLRAEDTAVYYCARIYYGNSFVYWGQGTLVTVSS
VL: DIVMTQSPDSLAVSLGERATINCKSSQSLLNSGNQKNYLTWYQQKPGQPPKLLIYWASTRESGVPDRFSGSGSGTDFTLTISSLQAEDVAVYYCQNNYYYPLTFGQGTKLEIKR
notes: as for B2
B10: humanized 410H6H3-VH1.2 + VL1 (antibody, human IgG1, kappa, V domains shown)
VH: EVQLVESGGGLVQPGGSRRLSCAASGFTFSSSGMHWVRQAPGKGLEWVSYISSGSNTIYYADTLKGRFTISRDNAKNTLFLQMNSLRAEDTAVYYCARIYYGNSFVYWGQGTLVTVSS
VL: DIVMTQSPDSLAVSLGERATINCKSSQSLLNSGNQKNYLTWYQQKPGQPPKLLIYWASTRESGVPDRFSGSGSGTDFTLTISSLQAEDVAVYYCQNNYYYPLTFGQGTKLEIKR
notes: as for B2
B11: chimeric 194D3B2 (antibody, human IgG1, kappa, V domains shown)
VH: QAYLQQSGAELVRSGASVKMSCKASGYPFTSYNMHWVKQTPGQGLEWVGYIYPGNGGTNYNQKFRDKATLTADTSSSTAYMQISRLTSDDSAVYFCLTGRGFAYWGQGTLVTVSA
VL: DIVMTQSPSSLIVTPGERVTMSCKSSQSLLNSGNQKNYLTWYQQKPGQPPKLLIYRASTRESGVPDRFTGSGSGTDFTLTISSVQAEDLAVYYCQNDYSYPLTFGIGTKLELKR
notes: as for B1
B12: chimeric 234B9D4 (antibody, human IgG1, kappa, V domains shown)
VH: EIQLQQSGPDLMKPGSSVKISCTASGYSFTSYYIHWVKQSHGKTLEWIGYIDPFNGGTRYNQKFEGKAALTVDKSSTTAYMHLTSLTSDDSAVYYCASLRFFTYWGQGTLVTVSA
VL: DIVMTQSPSSLTVTAGEKVTMTCKSSQSLLNSGNQENYLTWYQQKPGQPPKLLISRASTRQSGVPDRFTGSGSGTDFTLTISSVQAEDLAVYYCQNDYSYPLTFGAGTKLELKR
notes: as for B1
B13: chimeric 182D10F1 (antibody, human IgG1, kappa, V domains shown)
VH: QAYLQQSGAELVRSGASVKMSCKASGYTFSSYNMHWVKQTPGQGLEWIGYIYPGNGGTNYNQKFKGKATLTADTSSSTAYMQISSLTSEDSAVYFCLTGRGFTYWGQGTLVTVSA
VL: DIVMTQSPSSLTVTAGEKVTMNCKSSQSLFNSGNQKNYLTWYQQKPGQPPKLLIYRASTRESGVPDRFTGSGSGTDFTLTISSVQAEDLAVYYCQNDYSYPLTFGVGTKLELKR
notes: as for B1
B14: chimeric 252F1B10 (antibody, human IgG1, kappa, V domains shown)
VH: QAYLQQSGAELVRSGASVKMSCKASGYTFTSHNMHWVKQTPGQGLEWIGYIYPGNGGTNYNQKFKGKATLTADTSSSTAYMQINSLTSEDSAVYFCTRDYYGNSFAYWGQGTLVTVSA
VL: DIVMTQSPSSLTEKAGERVSMSCKSSQSLFNSGNQKNYLTWYQQKPGQPPKLLIYWASTRESGVPDRFTGSGSGTDFTLTISSVQAEDLAVYYCQNDYRYPFTFGAGTKLELKR
notes: as for B1
B15: chimeric 203A6C9 (antibody, human IgG1, kappa, V domains shown)
VH: QVQLKQSGPGLVQPSQSLSITCTVSGFSLTRYGVHWVRQSPGKGLEWLGVIWSGGNTDYNAAFISRLNIRKDNSKSQVFFKMNSLKPNDTAIYYCARAAYFGNSFDYWGQGTTLTVSS
VL: DIVMTQSPSSLPVTAGEKVTMSCKSSQSLLNSGNQKNYLTWYQQKPGQPPKLLIYWASTRDSGVPDRFTGSGSGTDFTLTISSVQAEDLAVYYCQNNYIYPLTFGAGTKLELKR
notes: as for B1
B16: chimeric 222B6G5 (antibody, human IgG1, kappa, V domains shown)
VH: QTYLQQSGAELVRSGASVKMSCKASGYTFTSYNIHWVKQTPGQGLEWIGYISPGNGGTYYNLKFKDKATLTTATSSSTAYMQISSLTSEDSAVYFCATGRGFAYWGQGTLVTVSA
VL: DIVMTQSPSSLTVTPGEKVTMSCKSSQSLFNSGNQKNYLIWYQQKPGQPPKLLIYRASTRDSGVPDRFTGSGSGTDFTLTISNVQAEDLAVYYCQNDYSYPLTFGAGTKLELKR
notes: as for B1
B17: chimeric 241H10A1 (antibody, human IgG1, kappa, V domains shown)
VH: QVQLQQSGAELVKPGASVKLSCKASGYTFTSFGINWLRQRPEQGLEWIGWIFPGDGNSKYNENFKGKATLTTDKSSSTAYMQVTRLTSEDSAVYFCARFYYGNSFANWGQGTLVTVSA
VL: DIVMTQSPSSLTVTAGEKVTMSCKSSQSLLNSGNQKNYLTWYQQKPGQPPKLLIYWAATRESGVPDRFTGSGSGTDFTLTISSVQAEDLAVYYCQNDYFYPFTFGGGTKLELKR
notes: as for B1

Experiments:
human Claudin18.2 [1] = target: T1, human Claudin18.2 (human); assay: FACS, Claudin18.2-HEK293 cells
T1 construct: also called CLDN18.2
Description: (§1) The binding of chimeric antibodies to Claudin18.2 expressed on HEK293 cells was determine by FACS analysis. Briefly, HEK293 cells expressing human Claudin18.2 as prepared in the foregoing Example were harvested and incubated with anti-Claudin18.2 mAbs at 4° C. for 40 min, followed by fluorophore (iFluor 647)-labeled goat […] IgG (H+L) secondary antibodies at 4° C. for 0.5 hour. The samples were then analyzed by flow cytometry.

human Claudin18.2 [2] = target: T1, human Claudin18.2; assay: FACS, Claudin18.2-HEK293 cells; remark: listed apart in the source
Description: as §1
After initial screening of cell binding with transfected supernatants, the binding pattern of chimeric and up to 3 humanized antibodies on Claudin18.2 expressed on HEK293 cells were plotted with antibody in 3× serial dilutions, starting concentration of 45 μg/ml, following the protocol described in Example 3.

human Claudin18.2 [3] = target: T1, human Claudin18.2; assay: cell-based or functional assay
human Claudin18.2 [4] = target: T1, human Claudin18.2; assay: cell-based or functional assay; remark: listed apart in the source

| Binder | EC50 (human Claudin18.2 [1]) [nM] | EC50 (human Claudin18.2 [2]) [µg/mL] | Span (human Claudin18.2 [2]) | CDC % Relative activity (human Claudin18.2 [3]) [%] | CDC EC50 (human Claudin18.2 [3]) [µg/mL] | ADCC % Relative activity (human Claudin18.2 [4]) [%] | ADCC EC50 (human Claudin18.2 [4]) [µg/mL] |
| --- | --- | --- | --- | --- | --- | --- | --- |
| B1 | 1.36 | – | – | – | – | – | – |
| B2 | – | 0.826 | 4650 | – | – | – | – |
| B3 | – | 0.794 | 4300 | – | – | – | – |
| B4 | – | 0.555 | 64500 | – | – | – | – |
| B5 | – | 0.571 | 71300 | – | – | – | – |
| B6 | – | 0.373 | 65900 | – | – | – | – |
| B7 | – | 0.512 | 70300 | – | – | – | – |
| B8 | – | 1.17 | 5520 | – | – | – | – |
| B9 | – | 0.33 | 72100 | – | – | – | – |
| B10 | – | 0.372 | 73000 | – | – | – | – |
| B11 | 0.796 | – | – | 793 | 0.34 | 83.6 | 0.0291 |
| B12 | 2.6 | – | – | – | – | – | – |
| B13 | 1.3 | – | – | – | – | – | – |
| B14 | 0.798 | – | – | 937 | 0.288 | 85.9 | 0.0357 |
| B15 | 0.551 | – | – | 1040 | 0.261 | 66.4 | 0.0367 |
| B16 | 0.61 | – | – | 1320 | 0.205 | 131 | 0.0276 |
| B17 | 1.53 | – | – | – | – | – | – |
